Results reported in patent US20060134756A1 (ZymoGenetics, published 2006).

Target: T1, CRF2-4/IL-22RA heterodimeric receptor on BaF3 cells (BaF3/CRF2-4/IL-22RA cells) (human, UniProt Q08334 20-325, limits assumed)
T1 sequence 1: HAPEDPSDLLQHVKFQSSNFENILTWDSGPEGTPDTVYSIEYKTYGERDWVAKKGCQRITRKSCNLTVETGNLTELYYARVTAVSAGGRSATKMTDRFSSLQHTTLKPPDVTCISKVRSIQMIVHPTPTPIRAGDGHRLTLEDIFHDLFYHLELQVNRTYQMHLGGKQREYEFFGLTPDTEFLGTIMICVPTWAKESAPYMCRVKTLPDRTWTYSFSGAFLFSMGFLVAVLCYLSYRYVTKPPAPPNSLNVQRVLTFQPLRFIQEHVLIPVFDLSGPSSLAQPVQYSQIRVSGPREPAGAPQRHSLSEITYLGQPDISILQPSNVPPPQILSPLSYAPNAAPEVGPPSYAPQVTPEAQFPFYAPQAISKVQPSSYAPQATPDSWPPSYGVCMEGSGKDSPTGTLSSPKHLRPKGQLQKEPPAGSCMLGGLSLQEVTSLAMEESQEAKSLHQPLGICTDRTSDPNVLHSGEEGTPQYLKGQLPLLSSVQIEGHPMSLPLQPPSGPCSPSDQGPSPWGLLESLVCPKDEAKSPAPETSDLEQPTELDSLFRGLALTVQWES
T1 sequence 2: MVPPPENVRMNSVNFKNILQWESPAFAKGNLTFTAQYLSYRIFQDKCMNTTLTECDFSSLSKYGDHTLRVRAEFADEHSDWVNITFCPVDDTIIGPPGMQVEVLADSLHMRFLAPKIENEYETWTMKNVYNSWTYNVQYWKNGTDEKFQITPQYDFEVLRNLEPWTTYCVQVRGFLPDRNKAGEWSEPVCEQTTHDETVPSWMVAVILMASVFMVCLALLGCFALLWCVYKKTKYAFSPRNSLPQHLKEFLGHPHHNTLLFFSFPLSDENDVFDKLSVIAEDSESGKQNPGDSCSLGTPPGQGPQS
Assay: cell-based or functional assay

proliferation of BaF3/CRF2-4/IL-22RA cells (Alamar Blue), IL-22-CEE at 0.06 ng/ml: ~2 fold over background
B1: IL-22-CEE (ligand)
chain: LLLALLVQGGAAAPISSHCRLDKSNFQQPYITNRTFMLAKEASLADNNTDVRLIGEKLFHGVSMSERCYLMKQVLNFTLEEVLFPQSDRFQPYMQEVVPFLARLSNRLSTCHIEGDDLHIQRNVQKLKDTVKKLGESGEIKAIGELEYMPME
